Data as given in patent US20060026702A1, “Phosphoinositide 3-kinase mediated inhibition of GPCRs” (DUKE UNIVERSITY, priority 2002, published 2006).

Key:
[1] = target: T1, βARK1/PI3K interaction (Bos taurus, UniProt P21146); experiment: βARK1 associated PI3K activity in HEK 293 cells co-transfected with HEAT or PI3KΔHEAT; format: cell-based
T1 construct: recognizes both full length βARK1 and the βARKct; expressed in transfected cells; host or cells: HEK 293
T1 sequence (P21146 1-689): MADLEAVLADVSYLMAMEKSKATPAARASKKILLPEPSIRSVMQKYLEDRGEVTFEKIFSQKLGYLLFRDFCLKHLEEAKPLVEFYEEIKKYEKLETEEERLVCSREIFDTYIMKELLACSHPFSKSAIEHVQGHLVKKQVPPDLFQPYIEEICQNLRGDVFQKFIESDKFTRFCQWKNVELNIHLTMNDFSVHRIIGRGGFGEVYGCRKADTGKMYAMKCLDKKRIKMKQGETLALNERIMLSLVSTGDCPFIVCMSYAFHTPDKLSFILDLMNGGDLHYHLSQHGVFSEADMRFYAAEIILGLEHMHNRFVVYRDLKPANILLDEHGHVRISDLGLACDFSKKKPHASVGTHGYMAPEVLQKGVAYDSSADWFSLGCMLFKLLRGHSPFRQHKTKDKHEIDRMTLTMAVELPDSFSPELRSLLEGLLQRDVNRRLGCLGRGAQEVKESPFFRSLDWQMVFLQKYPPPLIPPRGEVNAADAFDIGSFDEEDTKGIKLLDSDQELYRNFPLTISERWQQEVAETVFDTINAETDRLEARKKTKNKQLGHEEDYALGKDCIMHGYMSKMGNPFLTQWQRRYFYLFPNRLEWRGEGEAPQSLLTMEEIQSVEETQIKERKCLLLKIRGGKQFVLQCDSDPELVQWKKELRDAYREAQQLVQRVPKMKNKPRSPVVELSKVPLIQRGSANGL
Procedure: The present inventors determined that overexpression of the 197 amino acid HEAT domain of PI3K competed for endogenous PI3K binding to βARK1 in living cells. HEK 293 cells were co-transfected with plasmids containing the βARK1 cDNA (2 μg) and increasing concentrations of the HEAT domain cDNA (ranging from 0 to 6 μg). […] The maximal reduction of βARK1 associated PI3K activity occurred when cells were co-transfected with 4 μg of HEAT cDNA (FIG. 9B). Summary results of n=5 experiments. *, p<0.0005. The data was normalized to βARK1 associated PI3K activity in cells transfected with βARK1 only. Furthermore, FLAG tagged HEAT protein co-immunoprecipitated with βARK1 monoclonal antibodies in the co-transfected HEK 293 cells.
The absence of the HEAT domain in an otherwise intact PI3K molecule affected the association of βARK1 with endogenous PI3K in cells. HEK 293 cells were co-transfected with plasmids containing cDNAs for βARK1 (2 μg), βARK1 plus HEAT (4 μg), and βARK1 plus PI3KΔHEAT (4 μg). Cell lysates were immunoprecipitated with a βARK1 monoclonal antibody and assayed for the associated PI3K activity. Expression of PI3KΔHEAT had no effect on the endogenous βARK1/PI3K interaction, whereas overexpression of HEAT abolished this interaction (FIGS. 9C and 9D). […] The data was normalized to βARK1 associated PI3K activity in cells transfected with βARK1 only.
Cytosolic and membrane fractions were prepared and analyzed for βARK1 associated PI3K activity. […] Membrane fractions were prepared from the HEK293 cells co-transfected with the βARK1 (2 μg), βARK1 and HEAT domain (4 μg) containing plasmids.

[2] = target: T2, AT1AR-GFP (Rattus norvegicus, UniProt P25095); experiment: Endocytosis of AT1AR-GFP in live cells by confocal microscopy; format: cell-based; details: Angiotensin II 10 μM, 20 min; HEAT co-expressed
T2 construct: expressed in transfected cells; host or cells: HEK 293
T2 sequence (P25095 1-359): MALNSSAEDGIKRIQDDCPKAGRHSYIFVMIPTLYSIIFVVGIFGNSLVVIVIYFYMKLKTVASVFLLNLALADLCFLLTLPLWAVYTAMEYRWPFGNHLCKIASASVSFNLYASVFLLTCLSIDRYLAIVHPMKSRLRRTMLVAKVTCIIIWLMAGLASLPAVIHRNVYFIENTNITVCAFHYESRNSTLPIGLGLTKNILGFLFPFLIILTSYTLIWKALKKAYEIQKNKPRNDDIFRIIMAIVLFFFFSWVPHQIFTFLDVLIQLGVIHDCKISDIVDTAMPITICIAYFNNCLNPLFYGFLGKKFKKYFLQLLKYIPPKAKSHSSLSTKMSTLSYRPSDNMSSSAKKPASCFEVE
Procedure: Disruption of the endogenous βARK1/PI3K interaction by the HEAT protein attenuated AT1AR endocytosis. Endocytosis of AT1AR-GFP in live cells was monitored for 20 min following angiotensin (10 μM) stimulation in the absence or presence of HEAT protein co-expression using confocal microscopy. HEK 293 cells were transfected with 2 μg Angiotensin II Type 1 Receptor, or with 2 pg Angiotensin II Type 1 Receptor and 2 μg HEAT, and stimulated for 20 minutes with 10 μM Angiotensin II. AT1AR internalization was followed in the same cell after agonist stimulation. Prior to agonist, the distribution of AT1AR-GFP was found distinctly at the plasma membrane (FIG. 15, 0 min). […] With time, this was followed by the formation of cytoplasmic aggregates, and then with the complete loss of membrane fluorescence (FIG. 15, 5-20 min). […] In FIG. 15, panels on the left represent cells transfected with the AT1AR-GFP alone (panels show the same cell monitored at 0, 5, 10, 15, and 20 min following stimulation). Panels on the right represent cell transfected with AT1AR-GFP and HEAT (panels show the same cell monitored as above). In the absence of HEAT, agonist caused the internalization AT1ARs as shown by the formation of distinct cytoplasmic aggregates and complete loss of membrane fluorescence.

B1: HEAT: 197 amino acid HEAT domain of PI3Kγ, FLAG epitope-tagged (SEQ ID NO: 2), overexpressed in cells (protein, listed as Homo sapiens)
chain: MDYKDDDDKHPIALPKHQPTPDDRVRAEMPNQLRKQLEAIIATDTAEDKELLWHFRYESLKHPKAYPKLFSSVKWGQQEIVAKTYQLLARREVWDQSALDVGLTMQLLDCNFSDENVRAIAVQKLESLEDDDVLHYLLQLVQAVKFEPYHDSALARFLLKRGLRNKRIGHFLFWFLRSEIAQSRHYQQRFAVILEAYLRGCGTA
modifications: FLAG tag
endogenous βARK1/PI3K interaction ([1]; 4 μg cDNA co-transfected with βARK1): abolished | agonist-induced translocation of PI3K to the membrane ([1]; 10 μM isoproterenol 2 min, HEAT 4 μg): effectively abolished | βARK1 associated PI3K activity with increasing HEAT cDNA ([1]; HEAT cDNA 0 to 6 μg): effectively competed away | receptor endocytosis (redistribution of AT1AR-GFP) [2]: completely inhibited
